Non-standard residues stand in square brackets, D forms with d. No end group written: not given here. *: point of attachment. GuAmb = 4-guanidinomethylbenzoyl, N=C(N)NCc1ccc(C(=O)*)cc1; Propanoyl(3-indol-3-yl) = O=C(CCc1c[nH]c2ccccc12)*; Phe(4-F) = N[C@@H](Cc1ccc(F)cc1)C(=O)O; Arg(Me) = CNC(=N)NCCC[C@H](N)C(=O)O; 4Pal = N[C@@H](Cc1ccncc1)C(=O)O; d3Pal = N[C@H](Cc1cccnc1)C(=O)O; d4Pal = N[C@H](Cc1ccncc1)C(=O)O; Cha = N[C@@H](CC1CCCCC1)C(=O)O; azaGly = NNC(=O)O
Tests used:
[1] = target: T1, human OT7T175 (metastin receptor) (human, UniProt Q969F8 1-398); assay: cell-based or functional assay
[2] = target: T1, human OT7T175 (metastin receptor); assay: competition with Cy-5 metastin (40-54) on hOT7T175-CHO cells, FMAT
[3] = target: T1, human OT7T175 (metastin receptor); assay: cell-based or functional assay; remark: listed apart in the source

T1 sequence (Q969F8 whole entry L364H): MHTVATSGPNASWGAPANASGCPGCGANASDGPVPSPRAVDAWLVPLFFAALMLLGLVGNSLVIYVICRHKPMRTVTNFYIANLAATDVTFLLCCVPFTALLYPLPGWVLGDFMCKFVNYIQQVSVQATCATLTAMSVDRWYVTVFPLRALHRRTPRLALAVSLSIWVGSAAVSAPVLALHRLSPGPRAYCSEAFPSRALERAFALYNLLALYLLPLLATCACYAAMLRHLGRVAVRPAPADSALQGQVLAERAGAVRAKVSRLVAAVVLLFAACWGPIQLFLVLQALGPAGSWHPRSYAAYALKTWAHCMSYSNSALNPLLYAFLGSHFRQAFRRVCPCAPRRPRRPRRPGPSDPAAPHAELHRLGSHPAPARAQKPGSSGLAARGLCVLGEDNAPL

[dY]NWNSFGLRF (not fully specified (C-terminus); also: C-terminal thioamide (CSNH2)) [[10Ψ,CSNH,D-Tyr1]MS10]
Ca ion level-increasing activity (FLIPR, 40 s) [1]: 1.5 EC50/MS10 EC50

[dY]NWNSFGL[Arg(Me)]F-NH2 (also: bond 6-7 CONH replaced by CH2NH, also called Compound No. 308) [[6Ψ7,CH2NH,D-Tyr1,Arg(Me)9]MS10]
IC50 [2]: 350 nM
Ca ion level-increasing activity (FLIPR, 40 s) [1]: 2.6 EC50/MS10 EC50

[dY]NWNSFGL[Arg(Me)]F-NH2 (also: bond 6-7 CONH replaced by NHCO (reversed)) [[6Ψ7,NHCO,D-Tyr1,Arg(Me)9]MS10]
Ca ion level-increasing activity (FLIPR) [3]: 3 x Metastin (1-54)
Ca ion level-increasing activity (FLIPR, 40 s) [1]: 3.1 EC50/MS10 EC50

B1: [D-Pya(4)1,D-Asn2,Cha3,AzaGly7,Arg(Me)9]MS10 (peptide)
peptide: [d4Pal][dN][Cha]NSF[azaGly]L[Arg(Me)]F-NH2
modifications: N-terminus assumed
SMILES: CNC(=N)NCCC[C@H](NC(=O)[C@H](CC(C)C)NC(=O)NNC(=O)[C@H](Cc1ccccc1)NC(=O)[C@H](CO)NC(=O)[C@H](CC(N)=O)NC(=O)[C@H](CC1CCCCC1)NC(=O)[C@@H](CC(N)=O)NC(=O)[C@H](N)Cc1ccncc1)C(=O)N[C@@H](Cc1ccccc1)C(N)=O
notes: also called Compound No. 306
IC50 [2]: 4.4 nM
Ca ion level-increasing activity (FLIPR) [3]: 2 x Metastin (1-54)

[dY]N[d4Pal]NSF[azaGly]L[Arg(Me)]F-NH2 (also called Compound No. 302) [[D-Tyr1,D-Pya(4)3,AzaGly7,Arg(Me)9]MS10]
IC50 [2]: 7.7 nM
Ca ion level-increasing activity (FLIPR) [3]: 2 x Metastin (1-54)

B2: des(1-5)-3-(3-Indolyl)propionyl-[AzaGly7,Arg(Me)9]MS10 (peptide)
peptide: {Propanoyl(3-indol-3-yl)}-F[azaGly]L[Arg(Me)]F-NH2
SMILES: CNC(=N)NCCC[C@H](NC(=O)[C@H](CC(C)C)NC(=O)NNC(=O)[C@H](Cc1ccccc1)NC(=O)CCc1c[nH]c2ccccc12)C(=O)N[C@@H](Cc1ccccc1)C(N)=O
Ca ion level-increasing activity (FLIPR) [3]: 2 x Metastin (1-54)
Ca ion level-increasing activity (FLIPR, 40 s) [1]: 5.9 EC50/MS10 EC50

B3: [D-Pya(3)1,D-Asn2,Cha3,AzaGly7,Arg(Me)9]MS10 (peptide)
peptide: [d3Pal][dN][Cha]NSF[azaGly]L[Arg(Me)]F-NH2
modifications: N-terminus assumed
SMILES: CNC(=N)NCCC[C@H](NC(=O)[C@H](CC(C)C)NC(=O)NNC(=O)[C@H](Cc1ccccc1)NC(=O)[C@H](CO)NC(=O)[C@H](CC(N)=O)NC(=O)[C@H](CC1CCCCC1)NC(=O)[C@@H](CC(N)=O)NC(=O)[C@H](N)Cc1cccnc1)C(=O)N[C@@H](Cc1ccccc1)C(N)=O
notes: also called Compound No. 290
IC50 [2]: 1.4 nM
Ca ion level-increasing activity (FLIPR) [3]: 1 x Metastin (1-54)

B4: [D-Pya(3)1,D-Tyr2,Cha3,AzaGly7,Arg(Me)9]MS10 (peptide)
peptide: [d3Pal][dY][Cha]NSF[azaGly]L[Arg(Me)]F-NH2
modifications: N-terminus assumed
SMILES: CNC(=N)NCCC[C@H](NC(=O)[C@H](CC(C)C)NC(=O)NNC(=O)[C@H](Cc1ccccc1)NC(=O)[C@H](CO)NC(=O)[C@H](CC(N)=O)NC(=O)[C@H](CC1CCCCC1)NC(=O)[C@@H](Cc1ccc(O)cc1)NC(=O)[C@H](N)Cc1cccnc1)C(=O)N[C@@H](Cc1ccccc1)C(N)=O
notes: also called Compound No. 291
IC50 [2]: 0.41 nM
Ca ion level-increasing activity (FLIPR) [3]: 2 x Metastin (1-54)

[dY]NWNSF[azaGly]L[Arg(Me)][Phe(4-F)]-NH2 (also called Compound No. 318) [[D-Tyr1,AzaGly7,Arg(Me)9,Phe(4F)10]MS10]
IC50 [2]: 0.99 nM
Ca ion level-increasing activity (FLIPR, 40 s) [1]: 2.9 EC50/MS10 EC50

{4‑(3-indolyl)butyryl}-NSF[azaGly]L[Arg(Me)]F-NH2 (also called Compound No. 267) [des(1-3)-4-(3-Indolyl)butyryl-[AzaGly7,Arg(Me)9]MS10]
IC50 [2]: 360 nM
Ca ion level-increasing activity (FLIPR) [3]: 2 x Metastin (1-54)

B5: des(1-5)-GuAmb-[Arg(Me)9]MS10 (peptide)
peptide: GuAmb-FGL[Arg(Me)]F-NH2
SMILES: CNC(=N)NCCC[C@H](NC(=O)[C@H](CC(C)C)NC(=O)CNC(=O)[C@H](Cc1ccccc1)NC(=O)c1ccc(CNC(=N)N)cc1)C(=O)N[C@@H](Cc1ccccc1)C(N)=O
Ca ion level-increasing activity (FLIPR) [3]: 1 x Metastin (1-54)
Ca ion level-increasing activity (FLIPR, 40 s) [1]: 5 EC50/MS10 EC50

B6: des(1-2)-Acetyl-[AzaGly7,Arg(Me)9]MS10 (peptide)
peptide: Ac-WNSF[azaGly]L[Arg(Me)]F-NH2
SMILES: CNC(=N)NCCC[C@H](NC(=O)[C@H](CC(C)C)NC(=O)NNC(=O)[C@H](Cc1ccccc1)NC(=O)[C@H](CO)NC(=O)[C@H](CC(N)=O)NC(=O)[C@H](Cc1c[nH]c2ccccc12)NC(C)=O)C(=O)N[C@@H](Cc1ccccc1)C(N)=O
notes: also called Compound No. 272
IC50 [2]: 540 nM
Ca ion level-increasing activity (FLIPR) [3]: 2 x Metastin (1-54)

B7: des(1-5)-GuAmb-[AzaGly7,Arg(Me)9]MS10 (peptide)
peptide: GuAmb-F[azaGly]L[Arg(Me)]F-NH2
SMILES: CNC(=N)NCCC[C@H](NC(=O)[C@H](CC(C)C)NC(=O)NNC(=O)[C@H](Cc1ccccc1)NC(=O)c1ccc(CNC(=N)N)cc1)C(=O)N[C@@H](Cc1ccccc1)C(N)=O
Ca ion level-increasing activity (FLIPR) [3]: 2 x Metastin (1-54)
Ca ion level-increasing activity (FLIPR, 40 s) [1]: 4.9 EC50/MS10 EC50

Y[dN][4Pal]NSF[azaGly]L[Arg(Me)]F-NH2 (also called Compound No. 304) [[D-Asn2,Pya(4)3,AzaGly7,Arg(Me)9]MS10]
IC50 [2]: 5 nM
Ca ion level-increasing activity (FLIPR) [3]: 3 x Metastin (1-54)

Source: US20090298765A1 (Takeda / Millennium, published 2009)
